From publication PMC11110392, “A first-in-class inhibitor of HSP110 to potentiate XPO1-targeted therapy in primary mediastinal B-cell lymphoma and classical Hodgkin lymphoma” (Journal of Experimental & Clinical Cancer Research : CR, 2024)

Target: T1, His-tagged HSP110 (recombinant) (UniProt Q92598 1-858, non-covalent RED-Tris-NTA 2nd generation dye on the His tag)
T1 construct: recombinant HSP110, OriGene TP307102; also called recombinant HSP110; TP307102; source: bought: OriGene (TP307102)
Assay: MST; Monolith NT.115; His-tagged HSP110 labelled with RED-Tris-NTA 2nd generation, fixed at 50 nM; STAT6 titrated from 2.39 µM to 0.07 nM
Details: both partners purified

T1 sequence (Q92598 whole entry): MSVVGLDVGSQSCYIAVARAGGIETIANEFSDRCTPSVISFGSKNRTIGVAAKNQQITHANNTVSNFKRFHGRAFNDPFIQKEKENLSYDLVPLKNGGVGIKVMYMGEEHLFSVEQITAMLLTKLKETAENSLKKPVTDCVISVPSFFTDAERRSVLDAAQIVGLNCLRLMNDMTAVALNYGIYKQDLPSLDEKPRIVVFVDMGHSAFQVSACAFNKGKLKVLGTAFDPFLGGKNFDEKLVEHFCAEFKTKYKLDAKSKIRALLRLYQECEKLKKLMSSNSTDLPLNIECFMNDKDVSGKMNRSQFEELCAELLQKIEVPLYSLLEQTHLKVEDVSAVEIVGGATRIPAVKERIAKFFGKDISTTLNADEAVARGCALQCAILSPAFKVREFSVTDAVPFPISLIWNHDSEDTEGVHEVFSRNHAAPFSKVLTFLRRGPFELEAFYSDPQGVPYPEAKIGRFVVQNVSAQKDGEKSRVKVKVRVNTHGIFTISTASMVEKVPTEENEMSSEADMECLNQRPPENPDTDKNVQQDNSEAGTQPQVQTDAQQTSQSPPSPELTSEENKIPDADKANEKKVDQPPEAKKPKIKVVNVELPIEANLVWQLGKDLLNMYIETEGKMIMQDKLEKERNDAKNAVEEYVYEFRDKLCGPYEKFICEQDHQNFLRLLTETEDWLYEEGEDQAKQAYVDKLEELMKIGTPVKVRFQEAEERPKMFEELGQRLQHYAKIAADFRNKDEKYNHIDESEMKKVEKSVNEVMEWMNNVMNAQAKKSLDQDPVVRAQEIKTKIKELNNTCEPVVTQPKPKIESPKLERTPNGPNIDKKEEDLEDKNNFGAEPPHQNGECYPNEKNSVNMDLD

B1: STAT6 (recombinant) (natural protein, UniProt P42226 1-847, looked up)
chain: MSLWGLVSKMPPEKVQRLYVDFPQHLRHLLGDWLESQPWEFLVGSDAFCCNLASALLSDTVQHLQASVGEQGEGSTILQHISTLESIYQRDPLKLVATFRQILQGEKKAVMEQFRHLPMPFHWKQEELKFKTGLRRLQHRVGEIHLLREALQKGAEAGQVSLHSLIETPANGTGPSEALAMLLQETTGELEAAKALVLKRIQIWKRQQQLAGNGAPFEESLAPLQERCESLVDIYSQLQQEVGAAGGELEPKTRASLTGRLDEVLRTLVTSCFLVEKQPPQVLKTQTKFQAGVRFLLGLRFLGAPAKPPLVRADMVTEKQARELSVPQGPGAGAESTGEIINNTVPLENSIPGNCCSALFKNLLLKKIKRCERKGTESVTEEKCAVLFSASFTLGPGKLPIQLQALSLPLVVIVHGNQDNNAKATILWDNAFSEMDRVPFVVAERVPWEKMCETLNLKFMAEVGTNRGLLPEHFLFLAQKIFNDNSLSMEAFQHRSVSWSQFNKEILLGRGFTFWQWFDGVLDLTKRCLRSYWSDRLIIGFISKQYVTSLLLNEPDGTFLLRFSDSEIGGITIAHVIRGQDGSPQIENIQPFSAKDLSIRSLGDRIRDLAQLKNLYPKKPKDEAFRSHYKPEQMGKDGRGYVPATIKMTVERDQPLPTPELQMPTMVPSYDLGMAPDSSMSMQLGPDMVPQVYPPHSHSIPPYQGLSPEESVNVLSAFQEPHLQMPPSLGQMSLPFDQPHPQGLLPCQPQEHAVSSPDPLLCSDVTMVEDSCLSQPVTAFPQGTWIGEDIFPPLLPPTEQDLTKLLLEGQGESGGGSLGAQPLLQPSHYGQSGISMSHMDLRANPSW
notes: recombinant STAT6, Abcam ab125625; also called recombinant STAT6; ab125625; source: bought: Abcam (ab125625)
Kd: 26.7 ± 12.3 nM
